Patent publication US20180017550

Key:
[1] = molecular target: Human casein kinase II (CK), cell-free expressed with C-terminal HSV epitope tag and polyhistidine tag
[2] = molecular target: human protein kinase A catalytic subunit alpha, cell-free expressed with C-terminal HSV epitope tag and polyhistidine tag, P17612
[3] = molecular target: human MDM2 (ubiquitin-protein ligase E3 MDM2), cell-free expressed with C-terminal HSV epitope tag and polyhistidine tag, Q00987
[4] = molecular target: human p53 oncoprotein (cellular tumor antigen p53), cell-free expressed from pETBlue-2 with C-terminal HSV epitope tag and polyhistidine tag, P04637

B1: human recombinant ZAP-70 tyrosine kinase (Invitrogen Corporation) (protein)
chain: MPDPAAHLPFFYGSISRAEAEEHLKLAGMADGLFLLRQCLRSLGGYVLSLVHDVRFHHFPIERQLNGTYAIAGGKAHCGPAELCEFYSRDPDGLPCNLRKPCNRPSGLEPQPGVFDCLRDAMVRDYVRQTWKLEGEALEQAIISQAPQVEKLIATTAHERMPWYHSSLTREEAERKLYSGAQTDGKFLLRPRKEQGTYALSLIYGKTVYHYLISQDKAGKYCIPEGTKFDTLWQLVEYLKLKADGLIYCLKEACPNSSASNASGAAAPTLPAHPSTLTHPQRRIDTLNSDGYTPEPARITSPDKPRPMPMDTSVYESPYSDPEELKDKKLFLKRDNLLIADIELGCGNFGSVRQGVYRMRKKQIDVAIKVLKQGTEKADTEEMMREAQIMHQLDNPYIVRLIGVCQAEALMLVMEMAGGGPLHKFLVGKREEIPVSNVAELLHQVSMGMKYLEEKNFVHRDLAARNVLLVNRHYAKISDFGLSKALGADDSYYTARSAGKWPLKWYAPECINFRKFSSRSDVWSYGVTMWEALSYGQKPYKKMKGPEVMAFIEQGKRMECPPECPPELYALMSDCWIYKWEDRPDFLTVEQRMRACYYSLASKVEGPPGSTQKAEAACA
In the case of B1, the “phosphorylation of photo-transferred protein on microarray, anti-phosphotyrosine (RC20) detection” value (from here on “phosphorylation”) [1] is reported as “ZAP-70 does not phosphorylate CK”, the “phosphorylation” value [2] is reported as “phosphorylates PKA to a very slight, nearly undetectable degree” and the “phosphorylation” value [3] is reported as “Both kinases heavily phosphorylate the MDM protein”. For the same protein, the “phosphorylation” value [4] was “p53 is not phosphorylated by either kinase”.
